According to patent US20240254166A1 (University of California, published 2024):

Target: T1, T-Alb-VFP (human, UniProt P02768 25-609)
T1 construct: mature;domain: transmembrane domain; also called tethered Alb
Assay: FRET (donor photobleaching), HEK293T cells

B1: CiHv1-TFP (other)
chain: MEGDNCNKSRHKSHNMINPNYASVRCTQPLPSVIQLRSRNKMIGITEDPSSDSEPVSSNQPLLLTNLSYEVHTFNDNNNHERPAPQEQSTQNTMISMQSEQKSDRFTASNLGMFQYMKFEIGEDGDDHEEEAILTNREKLRHILHSKPIHVAIIVLVVLDSFLVVGELLIDLKVIIVPHGNPAPEILHGFSLSILSIFMVEIALKIIADHRHFIHHKVEVLDAVVVVISFGVDIALIFVGESEALAAIGLLVILRLWRVFRIINGIIVTVKTKADDRVHEIKKKNSELELQIHNLEEKLSQKEQDMSRLHEILRCNNIDIPPTVPLTTSVQIHSTTTASADV
notes: whole, on cells
binding result: no binding
